Patent US5914109

Columns and labels:
[1] = target: gp120 of HTLV-IIIB (HIV-1 isolate IIIB)
[2] = target: 22-mer V3 peptide of HXB2 (HIV-1 HXB2 (IIIB)); assay: competition ELISA in solution at equilibrium (Friguet method)
[3] = target: 20-mer V3 peptide of HIVSF2 (HIV-1 isolate SF-2); assay: as above
[4] = target: gp120 of HIVMN (HIV-1 strain MN) (UniProt P05877)
[5] = target: gp120 of HIV-1 isolate DU 7887-7 (HIV-1 isolate DU 7887-7)
[6] = target: gp120 of HIV-1 isolate WMJ-2 (HIV-1 isolate WMJ-2)
[7] = target: gp120 of HIV-1 isolate AL-1 (HIV-1 isolate AL-1)
[8] = target: gp120 of HIV-1 isolate SF-2 (virus) (HIV-1 isolate SF-2) (UniProt P03378)
[9] = target: gp120 of HIV-1 isolate RF (HIV-1 isolate RF) (UniProt P04579)
[10] = target: gp120 of HTLV-IIIB (HIV-1 isolate IIIB); remark: listed apart in the source
[11] = target: V3-RF peptide (HIV-1 isolate RF); assay: ELISA on V3 peptide coated plates, mAb at 10 µg/ml
[12] = target: 22-mer V3 peptide of HXB2 (HIV-1 HXB2 (IIIB)); assay: ELISA on V3 peptide coated plates, mAb at 10 µg/ml
[13] = target: 23-mer peptide of the gp120 V3 loop of the MN strain of HIV-1 (HIV-1 strain MN); assay: ELISA on V3 peptide coated plates, mAb at 10 µg/ml
[14] = target: V3-CDC4 peptide (HIV-1 isolate CDC4); assay: ELISA on V3 peptide coated plates, mAb at 10 µg/ml
[15] = target: V3-WM52 peptide (HIV-1 isolate WM52); assay: ELISA on V3 peptide coated plates, mAb at 10 µg/ml
[16] = target: 20-mer V3 peptide of HIVSF2 (HIV-1 isolate SF-2); assay: ELISA on V3 peptide coated plates, mAb at 10 µg/ml
[17] = target: V3-SC peptide (HIV-1 isolate SC); assay: ELISA on V3 peptide coated plates, mAb at 10 µg/ml
[18] = target: V3-NY5 peptide (HIV-1 isolate NY5); assay: ELISA on V3 peptide coated plates, mAb at 10 µg/ml
[19] = target: heptapeptide GPGRAFY (pin 12) (HIV-1 strain MN); assay: pin ELISA, heptapeptide on pin, mAb at 10 µg/ml
[20] = target: heptapeptide PGRAFYT (pin 13) (HIV-1 strain MN); assay: pin ELISA, heptapeptide on pin, mAb at 10 µg/ml
[21] = target: heptapeptide IGPGRAF (pin 11) (HIV-1 strain MN); assay: pin ELISA, heptapeptide on pin, mAb at 10 µg/ml
[22] = target: heptapeptide RAFYTTK (pin 15) (HIV-1 strain MN); assay: pin ELISA, heptapeptide on pin, mAb at 10 µg/ml
[23] = target: heptapeptide GRAFYTT (pin 14) (HIV-1 strain MN); assay: pin ELISA, heptapeptide on pin, mAb at 10 µg/ml
[24] = target: heptapeptide HIGPGRA (pin 10) (HIV-1 strain MN); assay: pin ELISA, heptapeptide on pin, mAb at 10 µg/ml

human mAb 694-D (antibody)
50% neutralization, CEM-SS syncytium-forming assay, IgG concentration [1]: 0.04 µg/mL | 90% neutralization, CEM-SS syncytium-forming assay, IgG concentration [1]: 1.4 µg/mL | Kd [2]: 12 µM | Kd [3]: 1.8 µM | neutralization endpoint, MT-4 cell killing assay [4]: 3.13 µg/mL | neutralization endpoint, MT-4 cell killing assay [5]: > 25 µg/mL | neutralization endpoint, MT-4 cell killing assay [6]: 6.25 µg/mL | neutralization endpoint, MT-4 cell killing assay [7]: 0.04 µg/mL | neutralization endpoint, MT-4 cell killing assay [8]: 0.04 µg/mL | neutralization endpoint, MT-4 cell killing assay [9]: > 25 µg/mL | neutralization endpoint, MT-4 cell killing assay [10]: 0.78 µg/mL | minimum antigen concentration giving positive results (µg/ml of V3 peptide used to coat) [11]: 1 | minimum antigen concentration giving positive results (µg/ml of V3 peptide used to coat) [12]: 0.1 | minimum antigen concentration giving positive results (µg/ml of V3 peptide used to coat) [13]: 0.01 | minimum antigen concentration giving positive results (µg/ml of V3 peptide used to coat) [14]: 1 | minimum antigen concentration giving positive results (µg/ml of V3 peptide used to coat) [15]: 0.6 | minimum antigen concentration giving positive results (µg/ml of V3 peptide used to coat) [16]: 0.01 | minimum antigen concentration giving positive results (µg/ml of V3 peptide used to coat) [17]: 0.02 | minimum antigen concentration giving positive results (µg/ml of V3 peptide used to coat) [18]: 1 | ELISA Reactivity (absorbance at 410 nm) (absorbance at 410 nm) [19]: > 2 | ELISA Reactivity (absorbance at 410 nm) (absorbance at 410 nm) [20]: 1.4 | ELISA Reactivity (absorbance at 410 nm) (absorbance at 410 nm) [21]: 1.37 | ELISA Reactivity (absorbance at 410 nm) (absorbance at 410 nm) [22]: 0.089 | ELISA Reactivity (absorbance at 410 nm) (absorbance at 410 nm) [23]: 1.23 | ELISA Reactivity (absorbance at 410 nm) (absorbance at 410 nm) [24]: 0.14
